Measured values published in US20160166634A1 (Novartis, published 2016).

The substances below were run against human APJ receptor (hAPJ) (human) (UniProt P35414) (assay: cell-based or functional assay).
human APJ receptor (hAPJ) (human), sequence (P35414 whole entry): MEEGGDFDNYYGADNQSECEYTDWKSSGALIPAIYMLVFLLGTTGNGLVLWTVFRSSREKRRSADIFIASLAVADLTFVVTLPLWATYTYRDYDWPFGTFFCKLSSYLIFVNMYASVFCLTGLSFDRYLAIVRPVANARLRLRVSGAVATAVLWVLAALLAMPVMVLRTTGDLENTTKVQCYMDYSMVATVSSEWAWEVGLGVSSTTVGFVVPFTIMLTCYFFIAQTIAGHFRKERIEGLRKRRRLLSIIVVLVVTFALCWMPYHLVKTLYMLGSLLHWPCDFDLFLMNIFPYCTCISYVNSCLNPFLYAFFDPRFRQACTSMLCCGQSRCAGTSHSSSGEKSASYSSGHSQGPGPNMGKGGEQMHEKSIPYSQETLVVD

Row | hAPJ Ca2+ Flux EC50 [nM] | Substance
1 | 92.4 | Example 2: Albumin-TPA-O2Oc-O2Oc-O2Oc-O2Oc-Q-R-P-R-L-C*-H-F-G-P-Nle-C*-f-OH (from UniProt P02768 25-609)
2 | 47.2 | Example 1: Albumin-MPA-O2Oc-O2Oc-O2Oc-O2Oc-Q-R-P-R-L-C*-H-F-G-P-Nle-C*-f-OH (from UniProt P02768 25-609)
3 | 52 | Example 3: Albumin-MPA-NHCH2CH2CH2-OCH2CH2OCH2CH2O-CH2CH2CH2NH-C(O)CH2CH2C=O-A-R-P-R-L-S-H-K-G-P-Nle-P-F-OH (from UniProt P02768 25-609)
